# Measured values as given in publication PMC7437997, “Mechanistic insights into Lhr helicase function in DNA repair”.
# B1: partial fork-2 lacking the red lagging strand (dsDNA)
# DNA 1: ATCGATAGTCTCTAGACAGTATGTCCTAGCAAGCCAGAATTCGGCAGCGT
# DNA 2: GACGCTGCCGAATTCTGGCTTGCTATGTAAATCTTTGCCCACGTTGACCC
# DNA 3: GGGTCAACGTGGGCAAAGATTTACA
# modifications: 5' biotin on S18
# Molecular target: Lhr (archaeal Lhr, Mth1802) (Methanothermobacter thermautotrophicus …, UniProt O27830 1-862)
# Experiment: EMSA; no ATP; 100 nM Lhr, 10 nM DNA; EMSA: buffer HB (20 mM Tris-HCl pH 7.5, 2 mM DTT, 100 µg/ml BSA, 7% glycerol), room temperature, 10 nM DNA, 100 nM Lhr, +/- ATP and MgCl2, 5% acrylamide TBE gel; smFRET: 1 µM Lhr, RT or 45°C
# Conditions: protein: recombinant; tags: none stated (pET22b via NdeI/EcoRI, pEB352; no tag purification); label: ATTO 532 (green); partial fork 1:3 parental 24 bp, 3:4 leading arm 25 bp; S18[1-26] single-stranded; 1 nt 5' overhang on S20
# Chain of Lhr (archaeal Lhr, Mth1802) (O27830 whole entry): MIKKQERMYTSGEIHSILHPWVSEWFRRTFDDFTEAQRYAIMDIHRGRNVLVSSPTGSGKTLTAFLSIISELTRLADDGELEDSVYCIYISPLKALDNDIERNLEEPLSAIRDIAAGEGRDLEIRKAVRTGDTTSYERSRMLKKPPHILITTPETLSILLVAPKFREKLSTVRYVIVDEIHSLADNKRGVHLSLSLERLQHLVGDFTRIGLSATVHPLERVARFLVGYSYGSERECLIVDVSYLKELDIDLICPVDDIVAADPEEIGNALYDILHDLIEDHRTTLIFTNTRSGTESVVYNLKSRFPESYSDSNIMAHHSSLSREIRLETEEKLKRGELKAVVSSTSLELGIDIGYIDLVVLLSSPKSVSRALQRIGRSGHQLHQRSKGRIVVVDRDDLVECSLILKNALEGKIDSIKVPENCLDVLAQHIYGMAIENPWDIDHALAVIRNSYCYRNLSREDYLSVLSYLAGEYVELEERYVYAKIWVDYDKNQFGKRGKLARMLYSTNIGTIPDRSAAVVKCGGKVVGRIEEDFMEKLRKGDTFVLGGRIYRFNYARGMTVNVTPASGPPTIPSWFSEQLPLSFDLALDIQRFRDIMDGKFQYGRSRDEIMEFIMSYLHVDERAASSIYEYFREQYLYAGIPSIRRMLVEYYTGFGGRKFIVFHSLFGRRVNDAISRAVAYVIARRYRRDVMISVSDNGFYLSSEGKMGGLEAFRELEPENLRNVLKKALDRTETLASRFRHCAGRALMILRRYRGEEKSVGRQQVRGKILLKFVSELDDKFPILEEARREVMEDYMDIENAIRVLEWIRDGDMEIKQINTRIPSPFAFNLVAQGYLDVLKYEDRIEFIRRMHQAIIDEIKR
binder,measurement,value
B1,binding result,binds
